Biological target: T1, Manduca sexta cadherin protein fragment (CR7–CR12) (Manduca sexta)
T1 construct: Manduca sexta cadherin receptor, fragment CR7–CR12, residues 810–1480; also called cadherin fragment; cadherin receptor fragment
Test: ELISA; 1 μg of cadherin fragment coated per well; toxin or protoxin dilutions in PBS, 1 h at 37°C; detected with polyclonal anti-Cry1Ab antibody; Scatchard analysis; apparent Kd
Conditions: both partners purified

B1: trypsin-activated Cry1Ab toxin (domain or fragment)
chain: not shown
modifications: Wild-type toxin cut from the protoxin by trypsin. Limits are not given; the conventional Cry1A trypsin core is used (cut after R28, C-terminal end near residue 619). Subspecies is not printed …
Work on B1 yielded a Kd of 3.3 ± 0.6 nM.
